Data reported in patent US20260159601A1.

Molecular target: human CD20 (human) (UniProt P11836)
Assay: flow cytometry on a human B-cell lymphoma cell line, 30 min at 4 C, detection with FITC-labeled F(ab)'2 goat anti-human Fc-gamma-specific antibody, median fluorescence intensity

Chain of human CD20 (human) (P11836 whole entry): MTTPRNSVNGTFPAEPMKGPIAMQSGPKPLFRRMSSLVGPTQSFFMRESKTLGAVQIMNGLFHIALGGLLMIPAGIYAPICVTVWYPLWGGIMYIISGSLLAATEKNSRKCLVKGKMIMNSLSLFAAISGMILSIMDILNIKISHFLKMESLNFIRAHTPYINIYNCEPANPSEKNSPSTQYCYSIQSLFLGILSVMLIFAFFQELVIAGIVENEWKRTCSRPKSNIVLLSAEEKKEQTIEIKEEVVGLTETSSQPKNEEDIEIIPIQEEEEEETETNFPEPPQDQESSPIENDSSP

EC50 (read off the curve): 5 nM
Substance: rituximab (antibody)
